Experimental data published in paper PMC10351740, “ZCCHC3 is a stress granule zinc knuckle protein that strongly suppresses LINE-1 retrotransposition” (PLOS Genetics, 2023).
Changes are numbered by the printed parent chain.

How the values were obtained:
[1] = target: T1, ZCCHC3-FL (Zinc Finger CCHC-Type Containing 3 with C-terminal FLAG epitope tag) (human, UniProt Q9NUD5 1-403); test: co-IP; HEK 293T lysates, FLAG-tagged bait on α-FLAG-M2 antibody bound to Protein G Dynabeads, 3 h at 4°C, 5 washes; endogenous ORF1p detected with polyclonal α-L1Hs-ORF1p; bands quantified with ImageJ (IP/input compared with empty vector); conditions: partners not purified
T1 construct: ZCCHC3 (Zinc Finger CCHC-Type Containing 3), human; made by PCR amplification of V5-TEV-ZCCHC3 (Ultimate ORF clone IOH40787); legend calls it the 44 kD full-length ZCCHC3-FL; also called FLAG-tagged ZCCHC3; wild-type ZCCHC3-FL; source: HEK 293T, transfected, in lysate; not shown: FLAG, C-terminal, kept
T1 sequence (looked up): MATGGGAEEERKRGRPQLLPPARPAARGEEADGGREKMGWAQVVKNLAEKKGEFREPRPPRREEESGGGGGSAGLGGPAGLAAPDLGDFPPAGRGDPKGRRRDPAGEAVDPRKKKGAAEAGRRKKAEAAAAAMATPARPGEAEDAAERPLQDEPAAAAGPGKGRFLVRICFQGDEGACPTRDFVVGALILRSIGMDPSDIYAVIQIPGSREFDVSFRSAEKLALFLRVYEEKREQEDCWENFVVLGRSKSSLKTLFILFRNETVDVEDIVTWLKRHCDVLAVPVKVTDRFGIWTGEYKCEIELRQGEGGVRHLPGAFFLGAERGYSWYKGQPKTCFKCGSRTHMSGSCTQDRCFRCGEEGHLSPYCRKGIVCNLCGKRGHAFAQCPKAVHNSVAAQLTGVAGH

[2] = target: T2, ZCCHC3-FL-7AA (zinc knuckle mutant of ZCCHC3-FL) (human, UniProt Q9NUD5 1-403, C353,366,372,375A | C353,366,372,375A | C353,366,372,375A | C353,366,372,375A | …); test: as above; conditions: partners not purified
T2 construct: also called zinc-finger mutant ZCCHC3-FL-7AA; source: HEK 293T, transfected, in lysate; not shown: FLAG, C-terminal, kept
T2 sequence (looked up): T1 sequence (looked up) with C353A, C366A, C372A, C375A, H380A, C385A, P386A

B1: endogenous L1 ORF1p (natural protein, human (endogenous in HEK 293T), UniProt Q9UN81 1-338, looked up)
chain: MGKKQNRKTGNSKTQSASPPPKERSSSPATEQSWMENDFDELREEGFRRSNYSELREDIQTKGKEVENFEKNLEECITRITNTEKCLKELMELKTKARELREECRSLRSRCDQLEERVSAMEDEMNEMKREGKFREKRIKRNEQSLQEIWDYVKRPNLRLIGVPESDVENGTKLENTLQDIIQENFPNLARQANVQIQEIQRTPQRYSSRRATPRHIIVRFTKVEMKEKMLRAAREKGRVTLKGKPIRLTADLSAETLQARREWGPIFNILKEKNFQPRISYPAKLSFISEGEIKYFIDKQMLRDFVTTRPALKELLKEALNMERNNRYQPLQNHAKM
notes: LINE-1 ORF1 protein, endogenous in HEK 293T cells; Endogenous ORF1p comes from many L1 loci; also called endogenous ORF1p; source: endogenous, HEK 293T lysate
- fold increase over empty vector controls (IP/input band intensity) [1]: 5 fold
- fold reduction against wild-type ZCCHC3-FL (band intensity) [2]: 2 fold
